PMC10833452 (2023)
Read-outs that look alike come from different tables or passages of the source.

B1: 8H12 monoclonal antibody (mouse IgG) (antibody, V domains shown)
VH: EVKLEESGGGLVQPGGSMKLSCAASGFTFSDAWMDWVRQSPEKGLEWVAQIRRKANNHATYYAESVKGRFTISRDDSKSSVYLQMNSLRAEDTGIYYCIRGMTYAMDFWGQGTSVTVSS
VL: DIVMTQFQKFMSTSVGDRVSITCKASQNVRTAVAWYQQKPGQSPKAMIYLASNRHRGVPDRFTGSGCGTDFTLTISNVQCEDLADYFCLQHRNYPLTFGGGTKLEIK
B2: 3E2 monoclonal antibody (mouse IgG) (antibody, V domains shown)
VH: EVMLVESGGGVVKPGGSLKLSCAASGFSFSTYAMSWIRQTPEKSLEWVAAISSGGTNTYYPGSVKGRFTISRDKAMNTLYLQLSSLRSEDTAMYYCVRHSGNYVDSVMDYWGQGTSVTVSS
VL: QIVLTQSPAIMSASLGEEITLTCSVSSSVSDMHWYQQKSGTSPKVFIYSTSNLASGVPSRFSGSGSGTFYSLTISSVEAEDAAYYYCHQWSSWTFGGGTKLEIK

Experiments:
Test in all cases: SPR
WT-RBD [1] = biological target: WT-RBD
WT-RBD [2] = biological target: WT-RBD; remark: listed apart in the source
WT-RBD [3] = biological target: WT-RBD; remark: listed apart in the source

| Binder | Kd (WT-RBD [1]) | Kd (WT-RBD [2]) | Kd (WT-RBD [3]) |
| --- | --- | --- | --- |
| B1 | 400 pM | 398 pM |  |
| B2 | 4 pM |  | 3.54 pM |
